B1: mAb2-1 (antibody, V domains shown)
VH: EVQLLESGGGLVQPGKSLRLSCAASGFSFSNYAMSWVRQAPGKGLEWVSGISGSGGSTNYAESVRGRFTISRDNSKNTLYLEMNSLRVEDTAVYYCAKGMSYYDRSGYFWAKYHYGMDVWGQGITVTVSS
VL: not shown
B2: mAb2-3 (antibody, V domains shown)
VH: VQLVESGGGLVKPGGSLRLSCATSGFTFSDYYMSWIRQAPGKGLEWVSYISSSGSTIYYADSVKGRFTMSRDNAKNSLFLRMNSLRAEDTAVYYCARDQITVDREVIRAHYYYGMDVWGQGTTVTVS
VL: DIQMTQSPSSVSASVGDRVTITCRASQGINSYLAWYQQKPGKAPKLLIYAASSLESGVPSRFSGSGSGTDFTLTISSLQPEDFATYYCQQANSFPLTFGGGTKVDI
B3: mAb1-1 (antibody, V domains shown)
VH: EVQLVESGGGLVKPGGSLRLSCAASGVPFSDAWMNWVRQAPGKGLEWVGRIKSKKDGGTADYAAPVKGRFSISRDDSKKMLYLHMNSLKTEDTAVYYCTTEPSGYCSNGLCYTGNYWGQGTLVTVSS
VL: QPVLTQSSSASASLGSSVKLTCTLSSGHITYIIAWHQQQPGKAPRYLMKLEDSGSYNKGSGVPDRFSGSSSGADRYLTISNLQFEDEADYYCETWDSYTRVFGGGTKLT
B4: mAb3-5 (antibody, V domains shown)
VH: EVQLVESGGGLVQPGGSLRLSCAASGFTFSNYGMNWVRQAPGKGLEWVSYISSGGTIYYADSVKGRFTISRDNAKNSVYLQMNSLRAEDTAVYYCARDPAYCGDDCYTIPAHYFDYWGQGTPVTVS
VL: DIQMTQSPSSLSASVGDRVTITCRTSQSISRYLNWYQQKPGKAPKLLIYAASSLQSGVPSRFTGSGSGTDFTLTISSLQPEDFATYYCQQSYSIPPVTFGQGTRVD
B5: mAb1-3 (antibody, V domains shown)
VH: VQLVESGGGVVQPGRSLRLSCAASGFSFSSFVFHWVRQAPGKGLEWVAVISYDGSNKNYADSVKGRFTISRDNSKNTLFLQMNSLSADDTAVYYCARGAICSSTTCYLGDSYYFYGMDVWGQGTTVTVSS
VL: LTQPPSVSGAPGQRVTISCTGSRSNIGAGYDVHWYQQLPGTAPKLLIYGNSNRPSGVPDRFSGSKSGTSASLAITGLQTDDEADYYCQSYDSSLSGSVFGGGTKLTVL
B6: mAb3-2 (antibody, V domains shown)
VH: EVQLLESGGGLVQPGGSLRLSCAASGFTFSNYAMSWVRQAPGKGLEWVSLISGSGGSIDYADSVKGRFTISRDNSKNTLYLQMDSLRAEDTAVYYCSKDPIYYDLSGYYAGRIYYFDYWGQGTLVTVSS
VL: EIVMTQSPATLSVSPGDTATLSCRASHSVSRDLAWYQQKPGQAPRLLIYDASTRATGIPARFSGSGSGTEFTLTISSLQSEDFAVYYCQQYINWVTFGPGTKVDIE
B7: mAb1-4 (antibody, V domains shown)
VH: QVQVVESGAEVKKPGASVKVSCKASGYAFTTYYMHWVRQAPGQGLEWMGLINPSGDSITYAQRFQGRVTMTKDTSTSTVYMELSSLRSEDTAIYYCARDPNVAFYYGSGNYYKDNAMDVWGQGTTVTVSS
VL: not shown
B8: mAb1-7 (antibody, V domains shown)
VH: QVQLQESGPGLVKPSETLSLTCTVSGDSIRSYYWSWIRQPPGKGLEWIGHIYYSGSTNYKPSLKSRATILVDTSKNQFSLKLRSVTAADTAVYYCAREMTGVAGRGWDHWGQGTLVTVSS
VL: ALTQPPSASGTPGQRVTISCSGSSSNIGSNTVNWYQQLPGTAPKLLIFINNQRPSGVPDRFSGSKSGTSASLAISGLQSEDEADYYCTTWDGSLNGYVFGTRTEVTVL
B9: mAb1-2 (antibody, V domains shown)
VH: EVQLVESGGGLVQPGGSLRLSCAASGFIFSNYWMSWVRQAPGKGPEWVANIKQDGSANHYVDSVKGRFTISRDNAKNSLYLQMNSLRAEDTAVYYCAREAYQDWNYDYWGQGTLVTVSS
VL: DIQMTQSPSSLSASVGDRVTVTCRASEFISRYLNWYQQKPGKAPKVLIYAASSLQSGVPSRFSGSGSGTDFTLTISSLQPEDFATYYCQQSYSTPYTFGQGTKLEIK
B10: mAb2-2 (antibody, V domains shown)
VH: QVQLQESGPGLVKPSVTLSLTCTVSGDSISTYYWSWVRQPPGKGLEWIGYIYYSGNTNYNPSLKSRVTMSVDTSKNQFSLKLNSVTAADTAVYYCARTHHDYGDYRPSYYFDYWGQGTLVTVSS
VL: QSALTQPASVSGSPGQSITISCTGTSSDVGAYDYVSWYQQHPGKAPKLMIYDVSNRPSSGVSNRFSGSKSGNTASLTISGLQAEDEADYYCSSYTSSSTVILGGGTKLTVL
B11: mAb3-4 (antibody, V domains shown)
VH: AVESGGGLVKPGGPLRLSCAASGFSLSDNYMTWIRQAPGKGLEWVSYISSSGSFINYADSVKGRFTISRDNAKNSLYLQMNSLRAEDTAVYYCARVLSSGGLTTSWRALWYFDVWGRGTLVTVS
VL: TVVTQEPSFSVSPGGTVTLTCGLTSGSVSTSYYPSWYQQTPGQTPRTLIYSTNIRSSGVPDRFSGSILGNKAALTITGAQADDECDYYCVLYMGSGIWVFGGGTKLTVL
B12: mAb2-6 (antibody, V domains shown)
VH: VQLLESGGALVQPGGSLRLSCAASGFSFSNYAMSWVRQAPGKGLEWVSTISASGGTTYFADSVKGHFTISRDNSKNTLYLQMDSLRAEDTAVYYCAKDPNYYDLSGYFLGGYYFDYWGQGTLVTVSS
VL: EIVLTQSPGTLSLSPGERATLSCRASQSVRSSYLAWYQQKPGQAPRLLIYGASSRATDIPDRFSGSGSGTDFTLTISRLEPEDFAVYYCQQYGTSPAFGGGTKV
B13: mAb3-3 (antibody, V domains shown)
VH: QVQLQESGPGLVKSSETLSLTCTVSGESISSSSHYWGWIRQPPGKGLEFLGNVYYLGSTYYNPSLESRVTILLDTSKNQFSLKVNSVTVADTAVYYCARHGAGSYSGLFFDYWGQGARVIVSS
VL: DIQMTQSPSFVSASVGDRVNITCRASQGINSWLAWYQQKPGKAPKLLIYSASSLQSGVPSRFSGSGSGTDFTLTISTLQPEDFATYYCQQANSFPYTFGQGTKVD
B14: mAb1-5 (antibody, V domains shown)
VH: EVQLVESGGGLVKPGGSLRLSCAASGFMFSSYSMNWVRQAPGKGLEWVSSISRSDSYIDYADSVKGRFTISRDTAMNVLYLQMDSLRAEDTGVYYCARTHVFNMFREVINDDYYGMDVWGQGTTVTVS
VL: ALTQPASVSGSPGQSITISCTGTSSDFGIYNSVSWYQHHPGKAPKLMIFGVSNRPSGVSNRFSGSKSGNTASLSISGLQAEDEADYYCSSFTARSTVVFGGGTKLTVL
B15: mAb2-5 (antibody, V domains shown)
VH: EVQLVESGGGLVKPGGSPRLSCAASGFNFGSYSMNWVRQAPGKGLEWVSSISSSSSYIYYADSVKGRFTISRDNAKHSLYLQVNSLRAEDTAVYYCARDPTTYGYNSAWDKKGWYFDLWGRGTLLTVS
VL: VLTQPPSVSAAPGQMVTISCSGSSSNIGNDYISWYQQLPGTAPKLLIYDNNERPSGIPDRFSGSKSGTSATLGITGVQTGDEADYYCGTWDSSLSAWVFGEGTKLTVV
B16: mAb2-4 (antibody, V domains shown)
VH: EVQLLESGGGLVHPGGSLRLSCAASGFPFSNFAMSWVRQAPGKGLEWVSTISGSSGSTYYADSVRGRFTISRDYSKNTVYLEMNSLRADDTAIYYCAKDRMITFGEVIVKHYDAFEIWGQGTRVAV
VL: DIQMTQSPSSLSASVGDRVTITCRASQTISTNVNWYQQKPGKAPKLLIYAASSLQSGVPSRFSGSGSGTDFTLTISSLQPEDFATFYCQQSYSAPLTFGEGTKV
B17: mAb3-7 (antibody, V domains shown)
VH: QVQLQESGPGLVKPSETLSLTCTVSGGSISNYYWNWIRQPPGKGLEWIGYVHYSGSTNYNPSLKSRVSVSVDTSKNQFSLNLGSVTAADTAVYYCARQSRSYYNEVITDPKYNFDYWGQGTLVTVSS
VL: QSALTQPASVSGSPGQSITISCTGTSSDVGGYDYVSWYQQHPGKAPKLMIYDVSNRPSGVSNRFSGSKSGNTASLTISGLQAEDEADYYCSSYTSISTLVFGGGTKLTVL
B18: mAb3-1 (antibody, V domains shown)
VH: EVQLLESGGGLVQPGGSLRLSCEASGFTFSRYPMNWVRQAPGKGLEWVSHISASGGTTYYADTVKGRFSISRDNSKNTLYLEMNSLRAEDTAIYFCAKDYPPDEVTMIVVGMPYFDSWGLGTLVSVSS
VL: not shown
B19: mAb3-6 (antibody, V domains shown)
VH: EVQLVESGGGLVQPGGSLRLSCSASGFHFSSYEMNWVRQAPGKGLEWVSYISSSGTYIDYADSVKGRFTISRDNPANSLYLQMYSLRAEDTAVYYCARRLWFGELPYSYYYGMDVWGQGTTVTVSS
VL: ALTQPASVSGSPGQSITISCTGTSSDIGGYNYVSWYQQHPGKAPELLIFDVSNRPSGVSNRFSGSKSGNTASLTISGLQAEDEADYHCCSYTRTSTVIFGGGTKLTVL

These binders were tested against AAV9 capsid (adeno-associated virus serotype 9 (AAV9), UniProt Q6JC40) (assay: far-Western, overlay or dot blot).
B1: binds. B2: binds. B3: binds. B4: binds. B5: binds. B6: binds. B7: binds. B8: binds. B9: binds. B10: binds. B11: binds. B12: binds. B13: binds. B14: binds. B15: binds. B16: binds. B17: binds. B18: binds. B19: binds.

Reference: publication doi:10.1101/2024.05.01.590489 (bioRxiv, 2024)
